From a protein production outcome set (Wang et al. 2014) come the findings set out here.
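Also: failed if final PepcDB status was selected cloned or expressed and not failed if soluble or beyond.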

The nature of the data set: label from the status in PepcDB records.
“MGRTPETHVIDFRAAEQLLAARDPRGAVKLLDPVIAAHPENTAARLLRARAFFAAAQLRPAELEFTIVLEREPDNAFAHFALARTYERQLRPDQAKRHFRLAAALDPNPQYLKAARLEHHHHHH”: the protein production entry was “not failed”.

“MGRVRLQANQMEWRPGIYVGEGTTIASSAQLEPPLWIGQHCYIGEEVQLKAGTVIGDESRIEAGACLDRAVVWNRVQIGQRSHLEGCVLADGVRLERHVQIHEGAVIGSGCRLQEEAQVQAEVRIWPRKQIEAGAILEHHHHHH”: the protein production result was “failed”.

“MGSASIGYQFGISARFYGNFNLSSDITVSSLPCKLDVSIKSLFSAPSSTHKEYSNRARVCSLPNTDGYCDEKFETPILDSIETPLQLKNLSVKELKLLADEIRTELHSVLWKKTQKSMNPSFAAIELTLALHYVFRAPVDNILWDAVEQTYAHKVLTRRWSAIPSRQNSGISGVTSRLESEYDSFGTGHGCNSISAGLGLAVARDMKGKRDRVVAVIDNVTITAGQAYEAMSNAGYLDSNMIVILNDSRHSLHPNMEEGSKASISALSSIMSKIQSSKVFRKFRELAKAMTKRIGKGMYEWAAKVDEYARGMVGPTGSTLFEELGLYYIGPVDGHNIEDLVCVLREVSSLDSMGPVLVHVITEGNRDAETVKNIMVKDRRTYSDCFVEALVMEAEKDRDIVVVHAGMEMDPSLLTFQERFPDRFFNVGMAEQHAVTFSAGLSSGGLKPFCIIPSAFLQRAYDQVVHDVDRQRKAVRFVITSAGLVGSDGPVQCGAFDIAFMSSLPNMIAMAPADEDELVNMVATAAYVTDRPVCFRFPRGSIVNMNYLVPTGLPIEIGRGRVLVEGQDVALLGYGAMVQNCLHAHSLLSKLGLNVTVADARFCKPLDIKLVRDLCQNHKFLITVEEGCVGGFGSHVAQFIALDGQLDGNIKWRPIVLPDGYIEEASPREQLALAGLTGHHIAATALSLLGRTREALLLMS”: the protein production entry is “failed”.

As to “MGSGPELTQTSLETLQEALQTERITYVDTLNEDIGAVVESADQLAFDYVVGDVSDYGVSSNDHVHLDLVHEGSTIHCVLFGYKRSAIDATIEDGMQVAVKGSLSYYEDGGNVSVIVEDIVEVGEGTYQRIYEQNRQLLDSDGLLDPEHKQALPDFPERIGIATSATSDARMDAITSIHERYPDVDIVIQNTSVQGDDAMMSIMGAISELDDDPRVDVIVLTRGGGSDKHLRVFNETPLCRVIHKTETPVVVGVGHENDRTLADEVADRRVMTPTEAGNIVPERTTLEAELETLEERLNTAYTETAETTLETMDDRLTRAYRRTVESDLSAFEAELDRTYDTHVRDELTDLANRLEQARTQYDQQREREQEVAAHRRQRRRLLLILVALGLLVVALLLYILLPL”, the protein production result was “failed”.

“MGSLQPDAGNASWNGTEAPGGGARATPYSLQVTLTLVCLAGLLMLLTVFGNVLVIIAVFTSRALKAPQNLFLVSLASADILVATLVIPFSLANEVMGYWYFGKAWCEIYLALDVLFCTSSIVHLCAISLDRYWSITQAIEYNLKRTPRRIKAIIITVWVISAVISFPPLISIEKKGGGGGPQPAEPRCEINDQKWYVISSCIGSFFAPCLIMILVYVRIYQIAKRRTRVPPSRRGPDAVAAPPGGTERRPNGLGPERSAGPGGAEAEPLPTQLNGAPGEPAPAGPRDTDALDLEESSSSDHAERPPGPRRPERGPRGKGKARASQVKPGDSLPRRGPGATGIGTPAAGPGEERVGAAKASRWRGRQNREKRFTFVLAVVIGVFVVCWFPFFFTYTLTAVGCSVPRTLFKFFFWFGYCNSSLNPVIYTIFNHDFRRAFKKILCRGDRKRIV”: the protein production result is given as “failed”.

For the sequence “MGSPNINGNTAKLVNAILDGAAEKRAEKVIYNLASLNIKGCDACFRCQKSGCCAIDDDMQELYHEIQAADTIVLGSPVYMWQMTAQTKLLIDRLTAFLKPDFSSRLDNKKLILVFSQGSPDRDAFKPYFEYTAGLLYYLGFDVLETVIAAGTDNLEVSFRPKLLENARELGRLVSTSPLTGPEFKKDEPSLTPLL”, the protein production entry is listed as “failed”.

As for “MGSSHHHHHHENLYFQGSNIAFYVVSDVHGYIFPTDFTSRNQYQPMGLLLANHVIEQDRRQYDQSFKIDNGDFLQGSPFCNYLIAHSGSSQPLVDFYNRMAFDFGTLGNHEFNYGLPYLKDTLRRLNYPVLCANIYENDSTLTDNGVKYFQVGDQTVGVIGLTTQFIPHWEQPEHIQSLTFHSAFEILQQYLPEMKRHADIIVVCYHGGFEKDLESGTPTEVLTGENEGYAMLEAFSKDIDIFITGHQHRQIAERFKQTAVIQPGTRGTTVGRVVLSTDEYENLSVESCELLPVIDDSTFTIDEDDQHLRKQLEDWLDYEITTLPYDMTINHAFEARVAPHPFTNFMNYALLEKSDADVACTALFDSASGFKQVVTMRDVINNYPFPNTFKVLAVSGAKLKEAIERSAEYFDVKNDEVSVSADFLEPKPQHFNYDIYGGVSYTIHVGRPKGQRVSNMMIQGHAVDLKQTYTICVNNYRAVGGGQYDMYIDAPVVKDIQVEGAQLLIDFLSNNNLMRIPQVVDFKVEK”, the protein production result was “not failed”.

As to “MGSSHHHHHHSSGLVPRGSHMLLREVTREERKNFYTNEWKVKDIPDFIVKTLELREFGFDHSGEGPSDRKNQYTDIRDLEDYIRATAPYAVYSSVALYEKPQEMEGWLGTELVFDIDAKDLPLRRCEHEPGTVCPICLNDAKEIVRDTVIILREELGFNDIHIIYSGRGYHIRVLDEWALKLDSKSRERILSFVSASEIEDVEEFRKLLLNKRGWFVLNHGYPRAFRLRFGYFILRIKLPHLINAGIRKSIAKSILKSKEEIYEEFVRKAILAAFPQGVGIESLAKLFALSTRFSKSYFDGRVTVDLKRILRLPSTLHSKVGLIAKYVGTNERDVMRFNPFKHAVPKFRKEEVKVEYKKFLESLGT”, the protein production result is listed as “not failed”.

“MGSSHHHHHHSSGLVPRGSTETSQQLQLRVQGKEKHQTLEVSLSRDSPLKTLMSHYEEAMGLSGRKLSFFFDGTKLSGRELPADLGMESGDLIEVWG”: the protein production result is “not failed”.

In the case of “MGSSHHHHHHSSGRENLYFQGGAGTSAAMRQATSPKTILEYIINFFTCGGIRRRNETQYQELIETMAETLKSTMPDRGAPLPENIILDDMDGCRVEFNLPGENNEAGQVIVRVSKGDHSETREIPLASFEKICRALLFRCEFSLPQDSVILTAQGGMNLKGAVLTGANLTS”, the protein production entry is on record as “not failed”.

Take “MGSSHHHHHHSSGRENLYFQGMAGGKSMNVESYEKILRDRQRELYRRLHKIEADFEEPRNPDDEDRASERSNDEVLDELGQVGQDELRAIDAALARIASGTFGTCVKCGKRISEDRLKAVPYTPFCQECAAAL”: the protein production entry was “not failed”.

In the case of “MGSSSRQGWRSVFKDVTQKWDVMTVEEQEKELSLLEEWTERVLEEWSDMHEACMTLRERQQQSSVLEKYPPYVSKGTALYDLEMFPEAAMQFDRELKMQPHMHHPLLHLYAIFANLYGGQRERCKEHCVYVLTTSVDRLVRYFTYMALGTLYMQEGEVEEALTSYEHASKLTFHPDVMYNLGMAYFLQHQYALAIPCFMEVIKDGEEDVDALYFLGCALCESGYVEEGCAKWLEAIQLCPPEKVLLTIGAKLEWYGFHQAAVHCFEQLLQSRQLRHLAKHGIAWNLALQDEREKAIHMLKELIAVPQIREDVRLSIEFLAHCWNDGNLRQLAASIERG”, the protein production entry was “failed”.

With “MGSTTGSMLTAISDTHGTDNHRLTGRTLDAVREADHVLHAGDFMTEQVLDAIDAESDELTGVVGNNDRPAVRARLSDVATVSWEELTIVVVHGHEHTETALGMLARQENADIVVVGHSHKPVLTDFGGWTLVNPGSYADPRRYQPAHAELDVMAGDVRVRLRSPDGTPISTTIVERLEHHHHHH”, the protein production result is “failed”.

In the case of “MGSVAARDYVGIATKYAEAAVADKGRKRHGRWIRLAAKRFLDDLKRARRRGTPFFFDEWHANDACDFIEKLPHVEGKWETPTIVMHPSHVFFVVQLFGFRRRDAIKVEGWGDDDTFHPRRFTSALFAVARKNAKSTLASAILLYCLCCEPEEGAQVISAATTFDQASIIFRASKRMVEKTPDLAEAFGLATWAKSISRFETGSSYKAVHAKASTQDGLNPSHTGLDEIHAHKTADLLNVLQSAAGARANPLWLFTTTEGYTNAGPWAEIRGFVFALLRGVLGTQADHFLALFYALDNEDKSAKITQDDEFDESKWIKANPLLDVNPHLKAAIRKEAVEAKQMPSKLAEFRIKRCNRPASTASGWVDLTKWAKCGGAVDLDWLAGYPCWGGLDLASTTDIAAFRLLWLVEGVWYTHGWRWVPSEAVKQRTERATVPYAGWVEAGYLLQTEGDVTDYSVIERDILAAVQRFDPQQIAYDAWNAADLVNRLVAASVPMVQFVQGTKSYHPAMQALELAYVGGKLVHGGDPVLAWCASNLVARRDVNLSMAPDRKRSADKIDDMAALLMAMGLAVASDDAEDLSDFFNNAVIGLEHHHHHH”, the protein production result is “not failed”.

As to “MGSVVHAEITEIKPFELRVNFGNSFRGRIHITEVLVNDASTSDEPFAKFRVGQSISARVVAKPCHTDIKKTQLWELSVKP”, the protein production result is reported as “not failed”.

In the case of “MGTHIKNQYISPPNTVYDCSIVKLPKIENRSGNITPIHSWVNIPFQIKRIFYSYDIPGGESRGAHAHKKCHQFLIAASGSFEVVLDDGISKRTVLLNRPFYGLHIPPGIWASEQGFSSGSVCLVLASHVYEEDDYLRDYQGFLNYKSQGIFEMFINVNGGGVSPKIFYLPFLFTKSKEEVA”, the protein production result is given as “failed”.

“MGTIESYLTNSYNYIIFNFKKLCIGGLMSAIVGAMSGVTTAFIDLFMERANYDIMHIIMSFLIYFGIIFIIGLIVSAIIGGYNVRIMKTTVEGLNVAPDWNNITDLLYRGILYIVGLVLLNIIFYFIPAILFVFGIFSLYISKIIGAFLIIISILIFIISVISLWLYSKLAEVNYSVKGFYGFFEFKEIFKMIGIRYIILVIIIAIINFIISLIVVLPLNIIDIFISYSALANSILTIIYISIKGISYALSTFVDFYLGVFSIRAVALYYKDRKGIT”: the protein production entry is “failed”.

With “MGTIGKKAAKGASVKFSESSTQAVIKATYLQVFGRDVYEGQRLKVQEIKLENGEISVRDFVRALAKSDLFRKLYWTPFYVCKAIEYIHRRLLGRPTYGRQENNKYFDIASKKGLYAVVDAILDSLEYTETFGEDTVPYERYLTPAGLEHHHHHH”, the protein production entry is on record as “not failed”.

For the sequence “MGTIILTWNIQWGRGADGRVDLSRMLAEARAMGSFDVLCLQEVTSGFGHLPGQPGEDQWQELAGALGQAFTLIDGIALERHEGAQIRRFGNAIATRLPVLHVARHALPCPADAGPTMPRMAIEAIVQAPFGPLRVVSTHLEYYSETQRIAQIDALRALHVEGCMRAAHPPTLGPEPTDGPFRPLAQTRATVICGDFNCKPDSKPKRLATVPFSHEAAALYDAWETAHGPTPQPPTFGVHDRTGWTEPAYACDFMLVSEPLKTRVTRVEVNSTTQASDHQPTLLELRDAE”, the protein production result is recorded as “failed”.

“MGTIKIVTDSSITIEPELIKALDITVVPLSVMIDSKLYSDNDLKEEGHFLSLMKASKSLPKTSQPPVGLFAETYENLVKKGVTDIVAIHLSPALSGTIEASRQGAEIAEAPVTVLDSGFTDQAMKFQVVEAAKMAKAGASLNEILAAVQAIKSKTELYIGVSTLENLVKGGRIGRVTGVLSSLLNVKVVMALKNDELKTLVKGRGNKTFTKWLDSYLAKNSHRPIAEIAISYAGEASLALTLKERIAAYYNHSISVLETGSIIQTHTGEGAFAVMVRYE”: the protein production result was “not failed”.

“MGTPAERWERARMFFDAKDYAAAARVLDGLVAQVPEQTGPRLLLARSYYHSAQLRRAEAELRVVVERDPVEHYARLMLGRTLERQGRQEEADAQLRIASALAGLEHHHHHH”: the protein production result is given as “failed”.
